Measurements: PMC3059893 (Biochemistry, 2011)
Where two headings read alike, the source gives them in different places. Each block holds one molecule with its values, some of them ahead of it.

How the values were obtained:
[1] = molecular target: Neurexin1 (Homo sapiens); details: cited from earlier work
[2] = molecular target: Model peptide; assay: NMR titration; details: cited from earlier work
[3] = molecular target: Syndecan1 (Homo sapiens); assay: fluorescence anisotropy; details: cited from earlier work
[4] = molecular target: T1, Tiam2 peptide 3; assay: fluorescence anisotropy
T1 chain: YAALIHKF

[5] = molecular target: T2, Tiam1 peptide 1; assay: fluorescence anisotropy
T2 chain: YAAYRYRA

[6] = molecular target: T3, Tiam1 peptide 3; assay: fluorescence anisotropy
T3 chain: YAAKAFRF

[7] = molecular target: T4, Tiam2 peptide 2; assay: fluorescence anisotropy
T4 chain: YAAGRKHF

[8] = molecular target: T5, Tiam1 peptide 2; assay: fluorescence anisotropy
T5 chain: YAAEKYWA

[9] = molecular target: T6, Neurexin1 (Homo sapiens); assay: fluorescence anisotropy
T6 chain: NKDKEYYV

[10] = molecular target: T7, Caspr4 (Homo sapiens); assay: fluorescence anisotropy
T7 chain: ENQKEYFF

[11] = molecular target: T8, Syndecan1 (Homo sapiens); assay: fluorescence anisotropy
T8 chain: TKQEEFYA

[12] = molecular target: T9, Model peptide; assay: fluorescence anisotropy
T9 chain: SSRKEYYA

Molecule: Tiam1 PDZ (from UniProt Q13009)
- Kd [1]: 2400 µM
- Kd [2]: 112 µM
- Kd [3]: 26.9 µM

- Kd [4]: 28.7 µM
- Kd [5]: 22.5 µM
- Kd [6]: 7.7 µM
- Kd [7]: 9.9 µM
- Kd [8]: 10.9 µM
- Kd [9]: 5 µM
- Kd [10]: 3.4 µM
- Kd [11]: 200 µM
- Kd [12]: 24.1 µM
B1: Tiam2 PDZ (protein)
chain: NVYDVQLTKTGSVCDFGFAVTAQVDERQHLSRIFISDVLPDGLAYGEGLRKGNEIMTLNGEAVSDLDLKQMEALFSEKSVGLTLIARPPDTKA
